Earlier results on three molecules are cited in patent publication US20180369330A1, “METHODS AND COMPOSITIONS USING INTEGRIN-BASED THERAPEUTICS” (La Jolla Institute for Allergy and Immunology, priority 2016, published 2018).

The conditions of data set [1]: patients, clinical trials or clinical use.
In data set [2] the target is T1, αVβ3 (Homo sapiens, UniProt P05106+P06756).
T1 construct: host or cells: patients with glioblastoma (cited trials)
As to conditions: patients with glioblastoma.

T1 sequence (P06756 31-889 limits assumed): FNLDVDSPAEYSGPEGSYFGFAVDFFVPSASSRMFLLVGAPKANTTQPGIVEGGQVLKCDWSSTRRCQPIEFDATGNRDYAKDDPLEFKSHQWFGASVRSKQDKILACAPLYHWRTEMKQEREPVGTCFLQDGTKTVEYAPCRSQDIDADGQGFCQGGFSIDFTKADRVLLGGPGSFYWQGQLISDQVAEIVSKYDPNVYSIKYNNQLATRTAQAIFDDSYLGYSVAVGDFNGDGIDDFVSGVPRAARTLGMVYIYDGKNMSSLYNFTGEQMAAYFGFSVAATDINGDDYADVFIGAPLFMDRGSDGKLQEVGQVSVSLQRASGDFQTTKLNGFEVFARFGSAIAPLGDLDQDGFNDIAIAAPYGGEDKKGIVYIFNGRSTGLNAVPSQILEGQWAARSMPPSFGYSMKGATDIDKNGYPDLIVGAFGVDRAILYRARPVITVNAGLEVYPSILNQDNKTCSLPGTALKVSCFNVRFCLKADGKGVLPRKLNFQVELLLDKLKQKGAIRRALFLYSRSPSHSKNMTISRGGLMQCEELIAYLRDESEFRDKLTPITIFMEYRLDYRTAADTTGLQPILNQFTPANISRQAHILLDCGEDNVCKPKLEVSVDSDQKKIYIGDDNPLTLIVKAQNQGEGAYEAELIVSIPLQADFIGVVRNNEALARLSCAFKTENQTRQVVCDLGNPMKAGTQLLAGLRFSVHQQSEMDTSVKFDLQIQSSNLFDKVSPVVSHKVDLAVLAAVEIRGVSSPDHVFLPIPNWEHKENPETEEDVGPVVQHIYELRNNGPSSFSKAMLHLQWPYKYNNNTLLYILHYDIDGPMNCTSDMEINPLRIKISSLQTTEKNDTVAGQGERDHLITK
T1 sequence (P06756 891-1048 limits assumed): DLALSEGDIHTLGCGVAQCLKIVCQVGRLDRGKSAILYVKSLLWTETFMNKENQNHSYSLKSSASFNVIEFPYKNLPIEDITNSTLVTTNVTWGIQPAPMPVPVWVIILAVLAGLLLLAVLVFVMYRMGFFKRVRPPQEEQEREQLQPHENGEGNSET
T1 sequence (P05106 27-788): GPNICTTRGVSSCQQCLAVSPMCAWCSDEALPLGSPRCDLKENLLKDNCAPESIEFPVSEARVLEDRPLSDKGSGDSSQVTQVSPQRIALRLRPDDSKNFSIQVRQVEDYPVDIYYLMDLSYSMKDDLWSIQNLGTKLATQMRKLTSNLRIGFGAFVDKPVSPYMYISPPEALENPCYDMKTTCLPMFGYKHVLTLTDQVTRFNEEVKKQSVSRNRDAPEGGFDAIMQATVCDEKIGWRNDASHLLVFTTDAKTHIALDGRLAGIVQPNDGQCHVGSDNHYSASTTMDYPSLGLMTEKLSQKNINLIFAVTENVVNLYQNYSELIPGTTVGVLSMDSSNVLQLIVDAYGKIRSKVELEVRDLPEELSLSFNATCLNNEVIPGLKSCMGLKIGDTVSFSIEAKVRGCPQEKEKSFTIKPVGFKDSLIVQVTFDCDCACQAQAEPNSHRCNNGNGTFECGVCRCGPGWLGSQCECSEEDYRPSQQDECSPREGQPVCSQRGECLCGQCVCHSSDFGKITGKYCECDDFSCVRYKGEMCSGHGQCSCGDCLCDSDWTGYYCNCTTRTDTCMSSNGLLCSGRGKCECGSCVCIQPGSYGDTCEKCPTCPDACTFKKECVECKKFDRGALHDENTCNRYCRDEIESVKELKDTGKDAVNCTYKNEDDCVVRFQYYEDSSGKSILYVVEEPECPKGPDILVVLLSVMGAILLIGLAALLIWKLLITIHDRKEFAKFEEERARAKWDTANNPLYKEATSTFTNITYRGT

Turning to “Natalizumab: antibody targeting lymphocyte α4β1 and α4β7 integrins”, the progressive multifocal leukoencephalopathy entry in data set [1] is reported as “rare but serious complication”.

Regarding “vedolizumab: antibody to a combinatorial epitope in α4β7”, the progressive multifocal leukoencephalopathy result in data set [1] was “has not been observed”.

Regarding `CC(C)[C@H]1C(=O)N[C@@H](CCCN=C(N)N)C(=O)NCC(=O)N[C@@H](CC(=O)O)C(=O)N[C@H](Cc2ccccc2)C(=O)N1C` [Cilengitide], the “efficacy in limiting tumor angiogenesis and progression” value in data set [2] is “has not shown efficacy”.
